One molecule from patent publication US20210355220A1 (TIKCRO TECHNOLOGIES, published 2021) can be followed below.

Assay [1] addresses T1, Pig (Sus scrofa) CTLA-4 on HEK293 cells (Sus scrofa, UniProt Q9MYX7 36-223).
T1 construct: whole, on cells; also called pig CTLA-4
Put plainly: flow cytometry on HEK293 cells transiently expressing pig CTLA-4. The procedure:
Macaque (Macaca fascicularis), pig (Sus scrofa) and mouse (Mus musculus) CTLA-4 proteins were transiently expressed on the surface of HEK293 cells. […] Binding was measured using FACS and analyzed.

A further assay concerns the target T2, hPDL2 on HEK293 cells (human, UniProt Q9BQ51 20-273).
T2 construct: whole, on cells
T2 sequence (looked up): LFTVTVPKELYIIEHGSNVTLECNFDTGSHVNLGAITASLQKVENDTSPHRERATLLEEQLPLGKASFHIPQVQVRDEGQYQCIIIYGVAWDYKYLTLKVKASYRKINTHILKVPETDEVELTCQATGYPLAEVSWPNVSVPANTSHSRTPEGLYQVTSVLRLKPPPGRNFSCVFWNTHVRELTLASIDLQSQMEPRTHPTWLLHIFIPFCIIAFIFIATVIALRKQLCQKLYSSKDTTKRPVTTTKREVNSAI
Description: flow cytometry on transfected HEK293 cells. Here is the method:
(§1) HEK293 cells were transfected with expression vectors of the following immune-related proteins: hBTLA, hICOS, hCD28, hPDL1, hPD1, hPDL2, and hCTLA-4. Over-expression of the proteins was verified using commercial antibodies against each target. […] Antibody binding to cells was then detected using flow cytometry. Cells that were incubated only with the secondary antibody were used as a background control. […] Note that “+” indicates binding above the background level and “-” indicate no binding as compared to the background level.

In another assay the target is T3, hICOS on HEK293 cells (human, UniProt Q9Y6W8 21-199).
T3 construct: whole, on cells
T3 sequence (looked up): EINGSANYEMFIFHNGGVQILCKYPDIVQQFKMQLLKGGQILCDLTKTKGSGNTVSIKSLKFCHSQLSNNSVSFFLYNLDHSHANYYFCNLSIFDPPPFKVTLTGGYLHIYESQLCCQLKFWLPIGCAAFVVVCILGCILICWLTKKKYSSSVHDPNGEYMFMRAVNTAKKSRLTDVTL
Description: flow cytometry on transfected HEK293 cells. The procedure:
as §1

Another assay deals with T4, hPD1 on HEK293 cells (human, UniProt Q15116 25-288).
T4 construct: whole, on cells
Description: flow cytometry on transfected HEK293 cells. The procedure: as §1

The target of a further assay is T5, hPDL1 on HEK293 cells (human, UniProt Q9NZQ7 19-290).
T5 construct: whole, on cells
Description: flow cytometry on transfected HEK293 cells. The procedure:
as §1

Another assay has as its target T6, hBTLA on HEK293 cells (human, UniProt Q7Z6A9 31-289).
T6 construct: whole, on cells
Put plainly: flow cytometry on transfected HEK293 cells. The procedure: as §1

The next assay concerns the target T7, hCD28 on HEK293 cells (human, UniProt P10747 19-220).
T7 construct: whole, on cells
Description: flow cytometry on transfected HEK293 cells. Here is the method: as §1

T1 sequence (Q9MYX7 36-223): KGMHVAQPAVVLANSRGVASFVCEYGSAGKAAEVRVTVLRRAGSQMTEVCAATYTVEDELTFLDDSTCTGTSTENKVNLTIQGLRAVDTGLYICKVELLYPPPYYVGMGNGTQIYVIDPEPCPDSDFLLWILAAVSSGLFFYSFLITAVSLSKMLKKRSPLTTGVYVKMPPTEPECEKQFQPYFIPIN
T5 sequence (Q9NZQ7 19-290): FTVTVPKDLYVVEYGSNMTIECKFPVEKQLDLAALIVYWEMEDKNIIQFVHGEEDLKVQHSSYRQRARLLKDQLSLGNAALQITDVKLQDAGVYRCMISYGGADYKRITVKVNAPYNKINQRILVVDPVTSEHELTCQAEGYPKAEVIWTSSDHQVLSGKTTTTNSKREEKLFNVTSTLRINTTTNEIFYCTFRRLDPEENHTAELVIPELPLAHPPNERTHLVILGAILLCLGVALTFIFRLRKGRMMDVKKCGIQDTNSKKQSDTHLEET
T4 sequence (Q15116 25-288): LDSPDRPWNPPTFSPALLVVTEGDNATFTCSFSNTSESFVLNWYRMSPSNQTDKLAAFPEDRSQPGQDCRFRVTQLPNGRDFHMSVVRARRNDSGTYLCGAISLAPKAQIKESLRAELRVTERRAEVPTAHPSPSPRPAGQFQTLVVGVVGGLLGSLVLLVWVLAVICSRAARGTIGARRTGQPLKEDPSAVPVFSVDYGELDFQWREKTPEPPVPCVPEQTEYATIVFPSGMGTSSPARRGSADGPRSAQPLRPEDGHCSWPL

B1: Ipilimumab (antibody, V domains shown)
VH: QVQLVESGGGVVQPGRSLRLSCAASGFTFSSYTMHWVRQAPGKGLEWVTFISYDGNNKYYADSVKGRFTISRDNSKNTLYLQMNSLRAEDTAIYYCARTGWLGPFDYWGQGTLVTVSS
VL: not shown
For the molecule B1, a half-maximal effect in assay [1] (EC50) was put at 671 nM. Also, the MFI came to 73 MFI in the assay with hPDL2 on HEK293 cells; 67 MFI in the assay with hICOS on HEK293 cells; 77 MFI in the assay with hPD1 on HEK293 cells; 70 MFI with hPDL1 on HEK293 cells; 67 MFI in the assay with hBTLA on HEK293 cells; 67 MFI with hCD28 on HEK293 cells.
